Reference: the supplement of paper PMC10567573

B1: FADS1 (parent)
chain: LNFQIEHHLFPTMPRHNYHKVAPL
B2: ATE1 (parent)
chain: DYFPSEDFYRCGYCKNESGSRSNG

Variants of: B1
Assay: protein stability index of a GFP-peptide fusion (GPS, HEK-293T) (PSI 1-6); higher = more stable
Details: c terminus: a fixed tail appended
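Further: lentivirally expressed fusions sorted by FACS into six bins by GFP to DsRed ratio, PSI derived from sequencing read proportions per bin multiplied by bin number.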

First: LNFQIEHHLFKTMPRHNYHKVAPL
Second: LNFQIEHHLFFTMPRHNYHKVAPL
The protein stability index of the first is lower: 2.46 for the first, 2.77 for the second.

First: LNFQIEHHLFPTMPHHNYHKVAPL
Second: LNFQIEHHLFPTMPDHNYHKVAPL
The protein stability index of the first is lower: 1.84 for the first, 1.98 for the second.

Going from LNFQIEHHLFPTMPRHNYHKVSPL to LNFQIEHQLFPTMPRHNYHKVAPL, the protein stability index falls from 2.91 to 2.35.

Compared with LNFQIEHLLFPTMPRHNYHKVAPL, LNFQIEHYLFPTMPRHNYHKVAPL is higher in protein stability index: 2.44 for the first, 2.57 for the second.

First: LNFQIEHKLFPTMPRHNYHKVAPL
Second: LNFQIEHILFPTMPRHNYHKVAPL
The protein stability index of the first is lower: 1.93 for the first, 3.23 for the second.

First: LNFQIEHHLFPTMPRSNYHKVAPL
Second: LNFQIEHHLFPTMPRHNYHVVAPL
The protein stability index of the first is higher: 1.28 for the first, 1.2 for the second.

LNFQIEHHLFPTMPRHNLHKVAPL and LNFQIEHHLFPTMPRHNSHKVAPL are the same in protein stability index: 1.69 for the first, 1.69 for the second.

First: LEFQIEHHLFPTMPRHNYHKVAPL
Second: LVFQIEHHLFPTMPRHNYHKVAPL
The protein stability index of the first is lower: 2.42 for the first, 2.5 for the second.

Going from LMFQIEHHLFPTMPRHNYHKVAPL to LNFQSEHHLFPTMPRHNYHKVAPL, the protein stability index rises from 1.53 to 2.18.

Going from LNFQIECHLFPTMPRHNYHKVAPL to LNFQIEIHLFPTMPRHNYHKVAPL, the protein stability index falls from 3.38 to 3.32.

First: LNFQIEHHLFPTMPRHTYHKVAPL
Second: LNFQIEHHLFPTMPRHNYLKVAPL
The protein stability index of the first is higher: 2.19 for the first, 1.54 for the second.

First: LNFQISHHLFPTMPRHNYHKVAPL
Second: LNFQIEHHDFPTMPRHNYHKVAPL
The protein stability index of the first is lower: 1.8 for the first, 2.04 for the second.

First: LNFQIEHHFFPTMPRHNYHKVAPL
Second: LNFQIEHHMFPTMPRHNYHKVAPL
The protein stability index of the first is higher: 3.13 for the first, 1.95 for the second.

First: LNFQIEHHLFPTMPRHNYHKVAAL
Second: LNFQIEHHLFPTMPRHNYHKVAYL
The protein stability index of the first is higher: 2.81 for the first, 1.79 for the second.

Going from GNFQIEHHLFPTMPRHNYHKVAPL to KNFQIEHHLFPTMPRHNYHKVAPL, the protein stability index falls from 2.63 to 2.03.

Compared with RNFQIEHHLFPTMPRHNYHKVAPL, ANFQIEHHLFPTMPRHNYHKVAPL is lower in protein stability index: 2.48 for the first, 1.91 for the second.

First: LNFQIEHHLFPTMPRHNYHKVAPQ
Second: LNFQIEHHLFPTMPRHNYHKVAPA
The protein stability index of the first is higher: 2.02 for the first, 1.71 for the second.

Compared with LNFQIEHHLFPTMPRHNYHKVAPF, LNFQIEHHLFPTMPRHNYHKVAPE is higher in protein stability index: 2.15 for the first, 2.33 for the second.

First: LNFQIEHHLFPTMPRHNYHKSAPL
Second: LNFQIEHHLFPTMPRHNYHKKAPL
The protein stability index of the first is higher: 1.98 for the first, 1.83 for the second.

Going from LNFQIEHHLFPTMPRHNYHKRAPL to LNFQIEHHLFPTMPRHNYHKEAPL, the protein stability index rises from 1.7 to 2.32.

First: LNFQIEHHLFPTKPRHNYHKVAPL
Second: LNFQIEHHLFPTNPRHNYHKVAPL
The protein stability index of the first is lower: 1.75 for the first, 1.91 for the second.

Variants of: B2
Assay: as above
Details: c terminus: a fixed tail appended

Compared with DYFPSESFYRCGYCKNESGSRSNG, DYFPSELFYRCGYCKNESGSRSNG is higher in protein stability index: 2.24 for the first, 2.29 for the second.

First: DYFPSENFYRCGYCKNESGSRSNG
Second: DYFPSEGFYRCGYCKNESGSRSNG
The protein stability index of the first is higher: 2.28 for the first, 1.85 for the second.

First: DYFPSEMFYRCGYCKNESGSRSNG
Second: DYFPSEWFYRCGYCKNESGSRSNG
The protein stability index of the first is higher: 1.83 for the first, 1.7 for the second.

Going from DYFPSEFFYRCGYCKNESGSRSNG to DYFPSEAFYRCGYCKNESGSRSNG, the protein stability index rises from 1.17 to 1.63.

First: DYFPSEQFYRCGYCKNESGSRSNG
Second: DYFPSETFYRCGYCKNESGSRSNG
The protein stability index of the first is higher: 3.11 for the first, 2.15 for the second.

First: DYFPSERFYRCGYCKNESGSRSNG
Second: DYFPSEKFYRCGYCKNESGSRSNG
The protein stability index of the first is lower: 1.93 for the first, 2.53 for the second.

Compared with DYFPSEYFYRCGYCKNESGSRSNG, DYFPSEHFYRCGYCKNESGSRSNG is lower in protein stability index: 2.85 for the first, 1.76 for the second.

Compared with DYFPSEPFYRCGYCKNESGSRSNG, DYFPSEIFYRCGYCKNESGSRSNG is lower in protein stability index: 2.71 for the first, 1.11 for the second.

First: DYKPSEDFYRCGYCKNESGSRSNG
Second: DYHPSEDFYRCGYCKNESGSRSNG
The protein stability index of the first is higher: 2.44 for the first, 1.8 for the second.

First: DYYPSEDFYRCGYCKNESGSRSNG
Second: DYIPSEDFYRCGYCKNESGSRSNG
The protein stability index of the first is lower: 2.14 for the first, 2.27 for the second.

Compared with DYVPSEDFYRCGYCKNESGSRSNG, DYPPSEDFYRCGYCKNESGSRSNG is higher in protein stability index: 2.13 for the first, 3.21 for the second.

First: DYRPSEDFYRCGYCKNESGSRSNG
Second: DYGPSEDFYRCGYCKNESGSRSNG
The protein stability index of the first is lower: 2.58 for the first, 3.35 for the second.

First: DYQPSEDFYRCGYCKNESGSRSNG
Second: DYNPSEDFYRCGYCKNESGSRSNG
The protein stability index of the first is higher: 3.12 for the first, 2.08 for the second.

Compared with DYAPSEDFYRCGYCKNESGSRSNG, DYDPSEDFYRCGYCKNESGSRSNG is higher in protein stability index: 2.45 for the first, 2.61 for the second.

Going from DYSPSEDFYRCGYCKNESGSRSNG to DYMPSEDFYRCGYCKNESGSRSNG, the protein stability index rises from 2.83 to 2.99.

First: DYCPSEDFYRCGYCKNESGSRSNG
Second: DYTPSEDFYRCGYCKNESGSRSNG
The protein stability index of the first is lower: 1.49 for the first, 2.45 for the second.

Going from DYWPSEDFYRCGYCKNESGSRSNG to DYLPSEDFYRCGYCKNESGSRSNG, the protein stability index falls from 2.85 to 1.83.

Going from DYFPSEDLYRCGYCKNESGSRSNG to DYFPSEDIYRCGYCKNESGSRSNG, the protein stability index rises from 2.19 to 2.35.

Going from DYFPSEDCYRCGYCKNESGSRSNG to DYFPSEDTYRCGYCKNESGSRSNG, the protein stability index rises from 2.54 to 2.63.

First: DYFPSEDPYRCGYCKNESGSRSNG
Second: DYFPSEDHYRCGYCKNESGSRSNG
The protein stability index of the first is higher: 3 for the first, 2.19 for the second.

Going from DYFPSEDEYRCGYCKNESGSRSNG to DYFPSEDYYRCGYCKNESGSRSNG, the protein stability index falls from 3.77 to 1.93.

Compared with DYFPSEDKYRCGYCKNESGSRSNG, DYFPSEDAYRCGYCKNESGSRSNG is lower in protein stability index: 2.49 for the first, 2.32 for the second.

Going from DYFPSEDDYRCGYCKNESGSRSNG to DYFPSEDGYRCGYCKNESGSRSNG, the protein stability index rises from 2.44 to 2.48.

Compared with DYFPSEDRYRCGYCKNESGSRSNG, DYFPSEDNYRCGYCKNESGSRSNG is lower in protein stability index: 2.91 for the first, 2.16 for the second.

First: DYFPSEDMYRCGYCKNESGSRSNG
Second: DYFPSEDVYRCGYCKNESGSRSNG
The protein stability index of the first is lower: 2.56 for the first, 3.1 for the second.

Compared with DYFPSEDQYRCGYCKNESGSRSNG, DYFQSEDFYRCGYCKNESGSRSNG is lower in protein stability index: 2.81 for the first, 2.77 for the second.
